# In patent US20240239878A1 (SHANGHAI QILU PHARMACEUTICAL RESEARCH AND DEVELOPMENT CENTRE, published 2024):
# Positions count from the first letter of the chain named.
# T1: human DLL3 on SHP-77 cells (human, UniProt Q9NYJ7 27-618)
# T1 construct: also called DLL3-expressing cells (SHP-77)
# T1 sequence: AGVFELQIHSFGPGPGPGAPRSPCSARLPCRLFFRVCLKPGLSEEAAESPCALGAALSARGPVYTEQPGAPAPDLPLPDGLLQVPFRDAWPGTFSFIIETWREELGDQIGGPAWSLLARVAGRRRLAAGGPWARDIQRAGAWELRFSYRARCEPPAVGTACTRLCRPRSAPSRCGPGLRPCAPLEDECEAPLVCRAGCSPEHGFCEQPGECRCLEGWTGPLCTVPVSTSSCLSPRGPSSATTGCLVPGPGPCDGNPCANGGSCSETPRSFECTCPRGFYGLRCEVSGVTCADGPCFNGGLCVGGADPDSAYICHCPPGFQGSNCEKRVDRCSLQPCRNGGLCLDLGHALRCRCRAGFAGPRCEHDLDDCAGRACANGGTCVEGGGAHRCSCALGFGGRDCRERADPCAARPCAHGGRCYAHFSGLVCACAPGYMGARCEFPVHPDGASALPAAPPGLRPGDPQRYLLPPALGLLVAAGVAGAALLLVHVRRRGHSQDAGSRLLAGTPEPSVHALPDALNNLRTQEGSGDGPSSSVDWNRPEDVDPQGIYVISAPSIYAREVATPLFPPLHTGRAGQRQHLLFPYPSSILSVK
# T2: Cynomolgus monkey DLL3 on HEK293 cells (HEK293-cyno DLL3) (Cynomolgus monkey, UniProt Q9NYJ7 27-618 (human entry))
# T2 chain: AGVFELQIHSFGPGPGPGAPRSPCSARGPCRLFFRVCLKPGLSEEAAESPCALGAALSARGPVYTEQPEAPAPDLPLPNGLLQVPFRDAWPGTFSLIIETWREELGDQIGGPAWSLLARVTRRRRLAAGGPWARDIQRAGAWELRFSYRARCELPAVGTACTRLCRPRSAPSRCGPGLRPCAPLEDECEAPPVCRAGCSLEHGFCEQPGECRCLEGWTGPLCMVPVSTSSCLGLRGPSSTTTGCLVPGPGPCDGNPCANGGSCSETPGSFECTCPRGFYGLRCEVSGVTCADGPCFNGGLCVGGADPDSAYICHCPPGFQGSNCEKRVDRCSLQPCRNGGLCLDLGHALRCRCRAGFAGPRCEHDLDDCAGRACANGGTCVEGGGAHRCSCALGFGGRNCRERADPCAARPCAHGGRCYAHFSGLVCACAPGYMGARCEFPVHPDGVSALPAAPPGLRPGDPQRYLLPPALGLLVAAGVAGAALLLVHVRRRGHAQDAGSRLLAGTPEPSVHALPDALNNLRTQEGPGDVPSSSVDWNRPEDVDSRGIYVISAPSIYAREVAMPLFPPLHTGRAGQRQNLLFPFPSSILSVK
# B1: 26C4D2 mouse hybridoma-derived anti-DLL3 chimeric antibody (antibody, V domains shown)
# VH: QVQLQQPGAELVKPGASVKLSCKASGYSFTSYWMHWVKQRPGQGLEWIGMIHPTLGDTNYNEKFKSKATLTVDKSSSTAYMELSSLTSEDSAVYYCARLGSLSMMDYWGQGTSVTVSS
# VL: DIQMTQTTSSLSASLGDRVTISCSASQGISNYLNWYQQKPDGTVKLLIYYTSSLHSGVPARFSGSGSGTDYSLTISNLEPEDIAIYYCQQYSKFPYTFGGGTKLEIK
# B2: 39E2D11-1 mouse hybridoma-derived anti-DLL3 chimeric antibody (antibody, V domains shown)
# VH: QVQLQQSGAELVKPGASVKMSCKASGYTFISYWITWVKQRPGQGLEWIGDIYPGSGSTTNYNEKFKSKATLTVDTSSSTAYMQLSSLTSEDSAVYYCARETTVGGAYAMDYWGQGTSVTVSS
# VL: DIVLTQSPATLSVTPGDSVSLSCRASQSINNNLHWYQQKSHESPRLLIKYVSQSISGIPSRFSGSGSGTDFTLTINSVETEDFGMYFCQQTNSWPLTFGAGTKLELK
# B3: 46A5A4 mouse hybridoma-derived anti-DLL3 chimeric antibody (antibody, V domains shown)
# VH: QVQLQQSDAELVKPGASVKISCKVSGYTFTDHTIHWMKQRPEQGLEWIGYIYPRDGYTMYNEKFKGKATLTADKSSSTAYMQLNSLTSEDSAVHFCARAFHALDYWGQGTSVTVSS
# VL: B1 VL with I21F, S22T, V44I, A60S, I85T, F94L
# B4: 48B6D7 mouse hybridoma-derived anti-DLL3 chimeric antibody (antibody, V domains shown)
# VH: QVQLQQPGAELVKPGTSVKLSCEASGYTFSNYWMQWVRQRPGQGLEWIGMILPNSDITNYNENFQTKATLTVDKSSSTAYMQLSSLTSEDSAVYYCARQARYSAMDYWGQGTSVTVSS
# VL: B1 VL with A13V, S22N, S53N, A60S, I85T, Q90H
# B5: 45E4D7 mouse hybridoma-derived anti-DLL3 chimeric antibody (antibody, V domains shown)
# VH: QVQLQQPGAELVKPGTSVKLSCKASGYTFTSHWITWVKQRPGQGLEWIGDIYPISGSTNNNEKFRNKATLTVDTSSSTAYMQLSSLTSEDSAVYFCAKIITVGGAYVMDYWGQGTSVTVSS
# VL: B2 VL with A9V, I29V, N30R, T74S, M85V, T91S
# B6: 27E10C5 mouse hybridoma-derived anti-DLL3 chimeric antibody (antibody, V domains shown)
# VH: QVQLQQSGAELVKPGASVKISCKASGYAFSSQWMNWVKQRPGKGLEWIGQIYPGNGDTNYNGKFKGKATLTADKSSSTAYIQLSSLTSEDSAVYFCARWFAYWGQGTLVTVSA
# VL: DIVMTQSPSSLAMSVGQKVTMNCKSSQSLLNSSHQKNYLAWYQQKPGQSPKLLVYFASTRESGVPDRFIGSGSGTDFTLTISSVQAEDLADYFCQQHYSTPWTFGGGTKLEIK
# B7: H1-45E4D7 mouse hybridoma-derived humanized anti-DLL3 antibody (antibody, V domains shown)
# VH: QVQLVQSGAEVKKPGASVKVSCKASGYTFTSHWITWVRQAPGQGLEWMGDIYPISGSTNNNEKFRNRVTMTRDTSTSTVYMELSSLRSEDTAVYYCAKIITVGGAYVMDYWGQGTLVTVSS
# VL: EIVMTQSPATLSVSPGERATLSCRASQSVRNNLHWYQQKPGQAPRLLIYYVSQSISGIPARFSGSGSGTEFTLTISSLQSEDFAVYYCQQSNSWPLTFGGGTKLEIK
# Target: T1, human DLL3 on SHP-77 cells
# Test: flow cytometry, SHP-77 cells
# Procedure: (§1) SHP-77 and HEK293-cyno DLL3 cells were cultured. The culture medium for SHP-77 cells were RPMI1640+10% FBS, and the culture medium for HEK293 cyno DLL3 cells was DMEM+10% FBS+200 μg/ml Hygromycin. The cells were cultured in a T75 cell culture flask at a 37° C. 5% CO₂ incubator. When using cells, they are washed with sterile DPBS, digested with 0.25% trypsin EDTA for about 5 minutes, and then stopped with a complete medium.
# (§2) The digested cells were centrifuged at 1000 rpm for 5 min at room temperature. The supernatant was discarded and the cells were resuspended in 100 μL of 1% BSA (in PBS). The cells were counted and adjusted to a cell density of 1E6/m. The dilute cells were seeded in a 96-well round-bottom culture plate (corning 3799), and centrifuged at 1500 rpm for 5 min at 4° C. The supernatant was discarded and the cells were stored at 4° C. until use. Antibody samples to be tested were diluted with 1% BSA (in PBS) at a starting concentration of 100 nM, downwards by a 10-fold gradient for 7 concentrations. The cells were resuspended with the diluted antibody at 100 μL/well and incubated for 1 hour at 4° C. The cells were centrifuged at 1500 rpm for 5 minutes at 4° C. and the supernatant was discarded. The cells were resuspended and washed with 160 μL of 1% BSA (in PBS), centrifuged at 1500 rpm for 5 minutes at 4° C. The supernatant was discarded. The secondary antibody (goat anti human IgG Fc PE) was diluted 1:200 with 1% BSA (in PBS) according to the manufacturer's instructions and the cells were resuspended with the diluted secondary antibody. 100 µL/well, and incubated for 0.5 h at 4° C. The cells were centrifuged at 1500 rpm for 5 minutes at 4° C. and the supernatant was discarded. The cells were resuspended and washed with 160 μL of 1% BSA (in PBS), centrifuged at 1500 rpm for 5 minutes at 4° C. The supernatant was discarded. The cells were resuspended in 100 μL of 1% BSA (in PBS), and filtered across a 300 mesh gauze. The mean fluorescence intensity of the PE channels was measured by flow cytometry.
# (§3) The analyzed mean fluorescence intensity was imported into Graphpad to analyze the median-binding concentration (hereinafter referred to as EC50) of antibody and cell and the top mean fluorescence intensity (Top MFI).
Binder,EC50,Top MFI
B1,0.6 nM,1050 MFI
B2,0.85 nM,999 MFI
B3,1.18 nM,1010 MFI
B4,0.65 nM,990 MFI
B5,0.68 nM,965 MFI
B6,1.2 nM,813 MFI

# Target: T1, human DLL3 on SHP-77 cells
# Test: flow cytometry, SHP-77 cells
# Remark: another data set of the same source
# Procedure: SHP-77 cells were cultured. The culture medium for SHP-77 cells was RPMI1640+10% FBS. The cells were cultured in a T75 cell culture flask at a 37° C. 5% CO₂ incubator. When using cells, they are washed with sterile DPBS, digested with 0.25% trypsin EDTA for about 5 minutes, and then stopped with a complete medium.
# as §2, with “plated” for “seeded”, “antibody,” for “antibody.”
# as §3
Binder,EC50,Top MFI
B7,5.16 nM,1590 MFI
B2,1.49 nM,1650 MFI
B3,1.2 nM,1570 MFI
B5,0.894 nM,1560 MFI

# Target: T2, Cynomolgus monkey DLL3 on HEK293 cells …
# Test: flow cytometry, HEK293-cyno DLL3 cells
# Procedure: as §1, §2, §3
Binder,EC50,Top MFI
B1,0.43 nM,421 MFI
B2,1.03 nM,445 MFI
B3,0.67 nM,475 MFI
B4,0.53 nM,480 MFI
B5,0.71 nM,454 MFI
B6,1.39 nM,396 MFI
